Residue numbers refer to the chain shown, from its start. Names and notes keep the numbering of the source.
T1: Cx35E224K (Morone americana Cx35 mutant E224K) (Morone americana)
T1 construct: Extracellular loop mutant of the screening library; not shown: C-terminal fluorescent protein fusion (mEmerald or RFP670 in FETCH)
T1 chain: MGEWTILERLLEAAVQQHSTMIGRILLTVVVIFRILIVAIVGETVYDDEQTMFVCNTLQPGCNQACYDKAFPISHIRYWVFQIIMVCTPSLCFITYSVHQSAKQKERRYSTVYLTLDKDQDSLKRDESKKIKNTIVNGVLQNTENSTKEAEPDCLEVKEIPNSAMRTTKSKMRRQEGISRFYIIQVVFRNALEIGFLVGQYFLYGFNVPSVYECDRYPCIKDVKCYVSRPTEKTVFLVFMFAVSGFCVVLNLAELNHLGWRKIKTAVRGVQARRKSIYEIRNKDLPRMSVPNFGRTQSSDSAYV

T2: Cx35E224H (Morone americana Cx35 mutant E224H) (Morone americana)
T2 construct: Extracellular loop mutant of the screening library; not shown: C-terminal fluorescent protein fusion (mEmerald or RFP670 in FETCH)
T2 chain: T1 chain with K224H

T3: Cx35E224R (Morone americana Cx35 mutant E224R) (Morone americana)
T3 construct: Extracellular loop mutant of the screening library; not shown: C-terminal fluorescent protein fusion (mEmerald or RFP670 in FETCH)
T3 chain: T1 chain with K224R

B1: Cx34.7K222Q (Morone americana Cx34.7 mutant K222Q) (other)
chain: MGEWTILERLLEAAVQQHSTMIGRILLTVVVIFRILIVAIVGETVYEDEQAMFICNTLQPGCNQACYDKAFPISHIRYWVFQIILVCTPSLCFITYSVHQSAKQKDRRYSFLYPIMERDYGGRDGARKLRNINGILVQHGGDGGGGKEEPDCLEVKEIPNAPRGLTHGKSSKVRRQEGISRFYIIQVVFRNALEIGFLAGQYFLYGFSVPGIFECDRYPCLQEVECYVSRPTEKTVFLVFMFAVSGICVVLNLAELNHLGWRKIKAAIRGVQARRKSICEIRKKDMAHLSQPPNLGRTQSSESAYV
notes: Extracellular loop mutant of the screening library; not shown: C-terminal fluorescent protein fusion (mEmerald or RFP670 in FETCH)
B2: human connexin36 (Cx36) (other, UniProt Q9UKL4 1-321, looked up)
chain: MGEWTILERLLEAAVQQHSTMIGRILLTVVVIFRILIVAIVGETVYDDEQTMFVCNTLQPGCNQACYDRAFPISHIRYWVFQIIMVCTPSLCFITYSVHQSAKQRERRYSTVFLALDRDPPESIGGPGGTGGGGSGGGKREDKKLQNAIVNGVLQNTENTSKETEPDCLEVKELTPHPSGLRTASKSKLRRQEGISRFYIIQVVFRNALEIGFLVGQYFLYGFSVPGLYECNRYPCIKEVECYVSRPTEKTVFLVFMFAVSGICVVLNLAELNHLGWRKIKLAVRGAQAKRKSIYEIRNKDLPRVSVPNFGRTQSSDSAYV
notes: whole, on cells; Hemichannel expressed in HEK 293FT cells for FETCH; also called GJD2; not shown: C-terminal fluorescent protein fusion (mEmerald or RFP670 in FETCH)

What was measured:
homotypic FETCH screen = target: the molecule itself; assay: homotypic FETCH screen
Protocol: (§1) Complete FETCH methodology is outlined in Ransey et. al. 2021 (Ransey E, et al. (2021) BioRxiv). Briefly, replica multi-well plates with HEK 293FT cells were transfected with either of the two connexin proteins being evaluated for docking. Following a transfection incubation period, experimental counterparts were combined, replated, and further incubated for about 20 hr to about 24 hrs, allowing cells to make contacts and potentially generate connexosomes. Co-plated samples were trypsinized, fixed in suspension and analyzed via flow cytometry. Flow cytometry data was processed with two selection gates prior to their fluorescence evaluation. First, putative HEK cells were identified by evaluating sample forward vs. side scatter area. Next, single cells were identified as the putative cells that maintained a linear correlation of forward scatter height to forward scatter area. Finally, the dual fluorescence (mEmerald vs. RFP670) profiles of each sample was generated, and the FETCH score was defined as the proportion of dual-labeled fluorescent cells that develop in a co-plated sample.
(§2) For screening analysis, five FETCH replicates were obtained for each condition (mutation). These scores were benchmarked against scores for Cx36 and Cx45 (FETCH=1.2±0.1%, n=54 replicates). To quantitatively determine whether a connexin pair docked, FETCH scores were determined for the dual fluorescence of cells under conditions where docking was not anticipated. These conditions included pairs of connexins previously established to not show docking: (i) Cx36 and Cx45 (FETCH=0.7±0.0%, n=59 replicates), (ii) homotypic Cx23 (FETCH=0.9±0.4%, n=6 previously collected replicates (Ransey E, et al. (2021) BioRxiv), and (iii) Cx36 and Cx43 (FETCH=1.2±0.2%, n=10 previously collected replicates (Ransey E, et al. (2021) BioRxiv), and under conditions for which cells were transfected with cytoplasmic fluorophores rather than tagged connexins (FETCH=4.4±0.6%, n=17 previously collected replicates (Ransey E, et al. (2021) BioRxiv).

human connexin43 (Cx43) [1] = target: T4, human connexin43 (Cx43) (human, UniProt P17302 2-382); assay: FETCH (flow cytometry, % dual-labelled HEK 293FT cells), heterotypic, n=6
T4 construct: whole, on cells; Hemichannel expressed in HEK 293FT cells for FETCH; also called GJA1; not shown: C-terminal fluorescent protein fusion (mEmerald or RFP670 in FETCH)
T4 sequence (P17302 2-382): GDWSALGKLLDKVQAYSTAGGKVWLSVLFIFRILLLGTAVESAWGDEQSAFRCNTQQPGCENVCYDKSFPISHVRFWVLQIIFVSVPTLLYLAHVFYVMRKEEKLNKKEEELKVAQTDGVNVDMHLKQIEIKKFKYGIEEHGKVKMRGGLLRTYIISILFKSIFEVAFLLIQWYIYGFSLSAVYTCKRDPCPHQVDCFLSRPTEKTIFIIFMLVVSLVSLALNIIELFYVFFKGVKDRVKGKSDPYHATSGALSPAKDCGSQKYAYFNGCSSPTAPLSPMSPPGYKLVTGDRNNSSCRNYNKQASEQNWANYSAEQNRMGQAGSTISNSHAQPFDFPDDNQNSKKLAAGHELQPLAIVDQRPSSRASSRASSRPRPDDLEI
Protocol: as §1

human connexin43 (Cx43) [2] = target: T4, human connexin43 (Cx43); assay: heterotypic FETCH
Protocol: as §1

human connexin36 (Cx36) = target: B2; assay: FETCH (flow cytometry, % dual-labelled HEK 293FT cells), heterotypic
Protocol: as §1

[3] = target: the molecule itself; assay: FETCH (flow cytometry, % dual-labelled HEK 293FT cells), homotypic
Protocol: as §1

[4] = target: T1, Cx35E224K (Morone americana Cx35 mutant …); assay: heterotypic FETCH; score higher than for the wild type Cx34.7WT/Cx35WT pair
Protocol: as §1, §2

[5] = target: T2, Cx35E224H (Morone americana Cx35 mutant …); assay: as above
Protocol: as §1, §2

[6] = target: T3, Cx35E224R (Morone americana Cx35 mutant …); assay: as above
Protocol: as §1, §2

human connexin45 (Cx45) = target: T5, human connexin45 (Cx45) (human, UniProt P36383 1-396); assay: FETCH (flow cytometry of co-plated HEK 293FT cells), benchmark pair
T5 construct: whole, on cells; Hemichannel expressed in HEK 293FT cells for FETCH; non-docking benchmark partner of Cx36; also called GJC1; not shown: C-terminal fluorescent protein fusion (mEmerald or RFP670 in FETCH)
T5 sequence (P36383 whole entry, the tested form may be a part): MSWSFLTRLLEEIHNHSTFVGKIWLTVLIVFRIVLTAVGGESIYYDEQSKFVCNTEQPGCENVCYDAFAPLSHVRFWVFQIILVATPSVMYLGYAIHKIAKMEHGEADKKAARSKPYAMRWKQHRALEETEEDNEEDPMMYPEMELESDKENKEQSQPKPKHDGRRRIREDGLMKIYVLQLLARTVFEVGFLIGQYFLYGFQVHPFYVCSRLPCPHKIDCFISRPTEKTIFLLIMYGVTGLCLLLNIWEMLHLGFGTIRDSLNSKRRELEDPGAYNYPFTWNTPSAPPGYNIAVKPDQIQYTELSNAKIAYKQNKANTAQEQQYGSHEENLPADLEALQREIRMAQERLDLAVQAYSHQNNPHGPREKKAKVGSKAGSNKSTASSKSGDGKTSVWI
Protocol: as §1
For screening analysis, five FETCH replicates were obtained for each condition (mutation). […] To quantitatively determine whether a connexin pair docked, FETCH scores were determined for the dual fluorescence of cells under conditions where docking was not anticipated. […]

Binder | binding result (homotypic FETCH screen) | FETCH score (human connexin43 (Cx43) [1]) [%] | binding result (human connexin43 (Cx43) [2]) | FETCH score (human connexin36 (Cx36)) [%] | FETCH score [3] [%] | binding result [4] | binding result [5] | binding result [6] | binding result (human connexin45 (Cx45))
B1 | no binding | 1.3 | no binding | 22.8 | 0.4 | binds | binds | binds | 
B2 |  |  |  |  |  |  |  |  | no binding

Reference: patent US20250186620A1 (DUKE UNIVERSITY, published 2025)
